Test results published in patent US20210147519A1 (Regeneron, published 2021).

B1: H1H20632D (bispecific antibody, V domains shown)
VH 1: EVQLVESGGGLVQPGRSLRLSCTTSGFTFDDYAMHWVRQVPGQGLEWVAGLSWNSDTIGYADSVKGRFTISRDNAKNSLYLQMKSLKAEDTALYYCTKDFYHSLNNWNYYYFDYWGQGTLVTVSS
VH 2: QVQLVESGGGVVQPGRSLRLSCAASGFTFSSYGMHWVRQAPGKGLEWVAVIWYDGSNKNYADSVKGRFTISRDSSKNTLYLQMNSLRAEDTAVYYCARENSEGYYYGMDVWGQGTTVTVSS
VL: not shown
notes: also called anti-IsdB x anti-C1q bispecific antibody
B2: H1H20637D (bispecific antibody, V domains shown)
VH 1: QLQLQESGPGLVKPSETLSLTCTVSGGSISSSSYYWVWIRQPPGKGLEWIGNIYFSGSTYYNPSLKSRVTITVDTSKNQFSLKMTSVTAADTAVYYCARPFYGSRGDYYYGMDVWGQGTTVTVSS
VH 2: EIVMTQSPATLSVSPGERATLSCTASQTINSNLAWYQQRPGQAPRLLIYGASTRATGTPARFRGSGSGTEFTLTISSLLSEDFAVYYCQNYNNWPPGGPRTFGPGTKVDIK
VL: not shown
notes: as for B1
B3: H1H20642D (bispecific antibody, V domains shown)
VH 1: QLQLQESGPGLVKPSETLSLTCTVSGGSISSSSYYWVWIRQPPGKGLEWIGNIYFSGSTYYNPSLKSRVTITVDTSKNQFSLKMTSVTAADTAVYYCARPFYGSRGDYYYGMDVWGQGTTVTVSS
VH 2: EVQLVESGGGLVQPGGSLRLSCAASGFTFSNYEMNWVRQAPGKGLDWVSYISTSGSVIYYADSVKGRFTISRDNAKNSLYLEMNSLRAEDTAVYYCARGYDFWSGSDYYYGMDVWGQGTTVTVSS
VL: not shown
notes: as for B1
B4: H1H20638D (bispecific antibody, V domains shown)
VH 1: QLQLQESGPGLVKPSETLSLTCTVSGGSISSSSYYWVWIRQPPGKGLEWIGNIYFSGSTYYNPSLKSRVTITVDTSKNQFSLKMTSVTAADTAVYYCARPFYGSRGDYYYGMDVWGQGTTVTVSS
VH 2: DIQMTQSPSSLSASIGDRVTITCRTSQDINNYLAWYQQKPGKVPKLLIFSASTLQSGVPSRFSGSGFGTDFTFIISSLQPEDVATYFCQKYDSGRGLSFGGGTKVEIK
VL: not shown
notes: as for B1
B5: H1H20641D (bispecific antibody, V domains shown)
VH 1: QLQLQESGPGLVKPSETLSLTCTVSGGSISSSSYYWVWIRQPPGKGLEWIGNIYFSGSTYYNPSLKSRVTITVDTSKNQFSLKMTSVTAADTAVYYCARPFYGSRGDYYYGMDVWGQGTTVTVSS
VH 2: QVQLVESGGGVVQPGRSLRLSCAASGFTFSNYGMHWVRQAPGKGLEWLAVIYYDGIKRYYGDSVQGRFIISRDNSKNTLYLQMNSLRDEDTAVYYCARAFSAAGPYNYYYAMDVWGQGTTVTVSS
VL: not shown
notes: as for B1

Experiments:
[1] = molecular target: T1, Recombinant bacterial IsdB expressed with a hexahistidine tag (IsdB-6xHis; REGN2655) (Staphylococcus aureus, UniProt A6QG30 42-613); assay: SPR Biacore, captured Ab, IsdB-6xHis analyte, 37C
[2] = molecular target: T2, native human complement component C1q protein purified from human serum (Quidel) (human, UniProt P02745 23-245; P02746 28-253; P02747 29-245); assay: competition ELISA, 30 pM biot-hC1q, competitor plate-coated hIgG1-k
T2 construct: the protein assayed was bought native serum C1q (Quidel); no signal peptide limits are stated; also called hC1q; human C1q

[3] = molecular target: T2, native human complement component C1q …; assay: competition ELISA, 30 pM biot-hC1q, competitor plate-coated hIgG3-k
[4] = molecular target: T2, native human complement component C1q …; assay: cell-based or functional assay
[5] = molecular target: T2, native human complement component C1q …; assay: competition ELISA, 6 nM biot-hC1q, competitor plate-coated hIgG2-k
[6] = molecular target: T2, native human complement component C1q …; assay: cell-based or functional assay; remark: listed apart in the source
[7] = molecular target: T2, native human complement component C1q …; assay: competition ELISA, 6 nM biot-hC1q, competitor plate-coated hIgM
[8] = molecular target: T2, native human complement component C1q …; assay: SPR Biacore, captured Ab, hC1q analyte, 37C
[9] = molecular target: T2, native human complement component C1q …; assay: cell-based or functional assay; remark: listed apart in the source
[10] = molecular target: T2, native human complement component C1q …; assay: SPR Biacore, captured Ab, hC1q analyte, 25C
[11] = molecular target: T3, IsdB expressed on the surface of S. aureus Wood 46 (Staphylococcus aureus); assay: ELISA on plate-coated S. aureus Wood 46
T3 construct: whole, on cells
Procedure: Briefly, S. aureus Wood 46 was grown in RPMI overnight, washed in PBS and adjusted to an OD₆₀₀ of 0.25. MaxiSorp 96 well microtiter plates were coated overnight with 100 μl of S. aureus culture per well. Plates were washed and blocked with 3% BSA. […] Anti-human HRP conjugated secondary antibody was added to washed plates. Luminescence reagents (SuperSignal Pico) were then added to the wells and signal was detected in a plate reader (Victor X3 plate reader, Perkin Elmer) immediately. Luminescence values were analyzed by a four-parameter logistic equation over a 7-point response curve (GraphPad Prism) to determine the binding EC₅₀, of the antibodies.

[12] = molecular target: T1, Recombinant bacterial IsdB expressed …; assay: SPR Biacore, captured Ab, IsdB-6xHis analyte, 25C

T1 sequence (A6QG30 42-613, tags left off): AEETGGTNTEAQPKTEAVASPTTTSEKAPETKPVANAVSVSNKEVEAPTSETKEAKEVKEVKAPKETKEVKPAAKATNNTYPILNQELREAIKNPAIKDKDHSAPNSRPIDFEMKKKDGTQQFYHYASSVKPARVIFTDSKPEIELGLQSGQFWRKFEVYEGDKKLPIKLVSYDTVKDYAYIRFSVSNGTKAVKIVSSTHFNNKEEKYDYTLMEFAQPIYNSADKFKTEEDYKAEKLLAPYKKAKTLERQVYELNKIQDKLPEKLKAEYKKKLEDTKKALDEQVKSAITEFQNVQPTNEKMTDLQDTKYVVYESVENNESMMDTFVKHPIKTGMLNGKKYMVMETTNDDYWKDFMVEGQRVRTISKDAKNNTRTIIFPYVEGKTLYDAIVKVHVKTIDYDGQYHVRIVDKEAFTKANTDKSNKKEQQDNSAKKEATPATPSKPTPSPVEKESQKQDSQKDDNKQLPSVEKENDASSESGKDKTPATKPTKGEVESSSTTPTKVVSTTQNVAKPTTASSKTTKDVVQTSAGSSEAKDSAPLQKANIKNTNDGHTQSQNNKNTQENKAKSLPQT
T3 sequence (Q2FZF0 41-613): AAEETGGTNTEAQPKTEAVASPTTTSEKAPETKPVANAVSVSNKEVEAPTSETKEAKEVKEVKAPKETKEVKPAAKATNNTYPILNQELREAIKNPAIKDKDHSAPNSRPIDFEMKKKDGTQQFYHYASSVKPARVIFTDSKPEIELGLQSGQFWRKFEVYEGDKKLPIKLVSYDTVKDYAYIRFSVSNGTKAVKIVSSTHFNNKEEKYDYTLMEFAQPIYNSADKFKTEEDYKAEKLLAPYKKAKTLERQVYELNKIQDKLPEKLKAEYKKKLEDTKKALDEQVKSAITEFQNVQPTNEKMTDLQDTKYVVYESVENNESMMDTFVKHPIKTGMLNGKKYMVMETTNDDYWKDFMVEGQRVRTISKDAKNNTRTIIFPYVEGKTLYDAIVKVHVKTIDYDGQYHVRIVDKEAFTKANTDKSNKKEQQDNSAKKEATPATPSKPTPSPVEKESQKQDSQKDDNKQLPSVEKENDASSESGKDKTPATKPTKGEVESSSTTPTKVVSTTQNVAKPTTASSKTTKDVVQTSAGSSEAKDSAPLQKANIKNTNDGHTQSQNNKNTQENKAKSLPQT
T2 sequence (P02745 23-245 limits assumed, chain 1 of 3): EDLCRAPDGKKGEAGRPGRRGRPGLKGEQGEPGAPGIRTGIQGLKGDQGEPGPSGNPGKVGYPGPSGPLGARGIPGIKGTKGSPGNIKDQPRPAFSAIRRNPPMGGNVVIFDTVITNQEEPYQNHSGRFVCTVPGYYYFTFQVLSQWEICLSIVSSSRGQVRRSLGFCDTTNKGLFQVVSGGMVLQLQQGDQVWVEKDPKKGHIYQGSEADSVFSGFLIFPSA
T2 sequence (P02746 28-253 limits assumed, chain 2 of 3): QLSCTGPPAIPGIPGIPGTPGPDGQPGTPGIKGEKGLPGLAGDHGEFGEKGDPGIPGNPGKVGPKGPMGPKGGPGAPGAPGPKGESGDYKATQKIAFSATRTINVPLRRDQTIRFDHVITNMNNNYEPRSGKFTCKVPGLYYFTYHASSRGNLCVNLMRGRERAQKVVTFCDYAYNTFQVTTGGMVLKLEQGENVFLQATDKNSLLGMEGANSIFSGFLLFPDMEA
T2 sequence (P02747 29-245 limits assumed, chain 3 of 3): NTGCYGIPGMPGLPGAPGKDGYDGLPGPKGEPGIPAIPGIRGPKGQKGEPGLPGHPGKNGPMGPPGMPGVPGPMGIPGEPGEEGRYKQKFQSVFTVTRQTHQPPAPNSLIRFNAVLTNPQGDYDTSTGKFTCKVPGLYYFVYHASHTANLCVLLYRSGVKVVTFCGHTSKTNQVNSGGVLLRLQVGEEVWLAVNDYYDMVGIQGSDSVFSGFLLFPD

Row | Binder | Kd [1] [nM] | koff [1] [s⁻¹] | kon [1] [M⁻¹ s⁻¹] | t1/2 [1] [min] | % Blockade with 30 nM bispecific Ab [2] [%] | % Blockade with 30 nM bispecific Ab [3] [%] | inhibition of CDC of Daudi cells, IC50 [M] [4] [M] | inhibition of CDC of Daudi cells, Max % Inhibition [4] [%] | % Blockade with 600 nM bispecific Ab [5] [%] | Classical Pathway hemolysis assay % inhibition [6] [%] | % Blockade with 600 nM bispecific Ab [7] [%] | Kd [8] [nM] | koff [8] [s⁻¹] | kon [8] [M⁻¹ s⁻¹] | t1/2 [8] [min] | C1q deposition on S. aureus Cowan I EC50 [9] [nM] | Kd [10] [nM] | koff [10] [s⁻¹] | kon [10] [M⁻¹ s⁻¹] | t½ [10] [min] | also measured
1 | B1 | 3.41 | 0.000527 | 154000 | 21.9 | 90 | 86 | 2.3e-07 | ≥ 99 | 88 | 100 | 97 | 0.175 | 0.00871 | 4.99e+07 | 1.33 | 0.529 | 0.294 | 0.00318 | 1.08e+07 | 3.64 | IC50 [3]: 83 nM; IC50 [5]: 23 nM; Classical Pathway hemolysis assay IC50 [6]: 1.78 nM; IC50 [7]: 18 nM; EC50 [11]: 1.08 nM; Kd [12]: 2.21 nM; koff [12]: 0.000255 s⁻¹; kon [12]: 115000 M⁻¹ s⁻¹; t½ [12]: 45.2 min
2 | B2 | 17.4 | 0.00149 | 85100 | 7.78 | -3 | -2 | > 1e-07 | 67 | 70 | 50 | 88 | 2.33 | 0.0407 | 1.75e+07 | 0.28 | 5 | 1.54 | 0.0124 | 8.01e+06 | 0.93 | IC50 [5]: 100 nM; IC50 [7]: 71 nM; EC50 [11]: 11.3 nM; Kd [12]: 9.34 nM; koff [12]: 0.000468 s⁻¹; kon [12]: 50100 M⁻¹ s⁻¹; t½ [12]: 24.7 min
3 | B3 | 16.7 | 0.00141 | 84600 | 8.19 | 71 | 96 | 1e-08 | ≥ 99 | 80 | 99 | 72 | 0.0501 | 0.000412 | 8.23e+06 | 28 | 0.00586 | 0.0114 | 0.000196 | 1.72e+07 | 58.9 | IC50 [2]: 0.11 nM; IC50 [3]: 0.37 nM; IC50 [5]: 5 nM; Classical Pathway hemolysis assay IC50 [6]: 0.106 nM; IC50 [7]: 3.9 nM; EC50 [11]: 8.57 nM; Kd [12]: 8.26 nM; koff [12]: 0.000501 s⁻¹; kon [12]: 60700 M⁻¹ s⁻¹; t½ [12]: 23 min
4 | B4 | 17.8 | 0.00144 | 80900 | 8.03 | -30 | -25 | 1e-07 | ≥ 99 | 33 | 24 | 28 | 1.98 | 0.011 | 5.53e+06 | 1.05 | 2.55 | 1.28 | 0.00511 | 4.01e+06 | 2.26 | EC50 [11]: 10.4 nM; Kd [12]: 10.8 nM; koff [12]: 0.000498 s⁻¹; kon [12]: 46200 M⁻¹ s⁻¹; t½ [12]: 23.2 min
5 | B5 | 14.7 | 0.00141 | 95900 | 8.19 | -17 | -13 | > 1e-06 | 33 | 19 | 0 | 14 | 0.18 | 0.00027 | 1.5e+06 | 42.9 | 1.29 | 0.154 | 0.00068 | 4.38e+06 | 17.1 | EC50 [11]: 10.3 nM; Kd [12]: 6.02 nM; koff [12]: 0.000438 s⁻¹; kon [12]: 72800 M⁻¹ s⁻¹; t½ [12]: 26.4 min
